The target in assay [1] is canine CD3 on canine T cells (canine PBMC) (canine, UniProt P27597 22-202). Briefly: cell-based or functional assay.
For assay [2], the target named is T1, canine CD3εδ-Fc (heterodimer of canine CD3ε-hIgG4PE-knob and canine CD3δ-hIgG4PE-hole) (canine).
T1 construct: also called CD3εδ-Fc fusion protein; copies: 1 + 1
Briefly: SPR (Biacore 8K), CD3εδ-Fc amine-coupled to CM5 chip, multi-cycle kinetics, antibody 600-7.4 nM. As to the method:
Binding affinity of shortlisted candidates, described in Example 3, were assessed using Biacore 8K (Cytiva). Briefly, a CM5 Sensor Chip (Cytiva) was docked onto a Biacore 8K, equilibrated for 30′ at RT and then Running Buffer (10 mM HEPES pH6 150 mM NaCl 3 mM EDTA and 0.005% Tween20) was applied to the SPR chip surface. Canine CD3εδ-Fc was diluted into 10 mM acetate buffer pH4.5 and immobilised using standard amine coupling reaction. Antibodies dilutions were prepared by diluting the shortlisted candidates from 600 nM to 7.4 nM (5 concentrations with 1:3 dilutions) in running buffer and kinetics was assessed using multi-cycle kinetics method (120 sec association-300 sec dissociation). Kinetics and/or Affinity quantification was performed using Biacore Insight following standard analyses methods.

In assay [3] the target is T2, canine CD20 on cells (HEK293, MDCK II, CLBL-1 or native B cells) (canine, UniProt Q3C2E2 1-297).
T2 chain: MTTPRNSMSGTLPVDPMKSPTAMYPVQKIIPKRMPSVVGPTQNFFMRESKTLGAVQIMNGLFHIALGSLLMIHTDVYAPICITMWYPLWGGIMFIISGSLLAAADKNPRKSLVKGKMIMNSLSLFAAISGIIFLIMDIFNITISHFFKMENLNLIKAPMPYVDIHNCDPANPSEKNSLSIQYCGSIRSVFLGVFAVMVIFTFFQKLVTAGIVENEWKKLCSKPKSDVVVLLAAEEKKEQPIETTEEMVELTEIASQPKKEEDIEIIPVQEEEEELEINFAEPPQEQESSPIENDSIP
Briefly: cell-based or functional assay.

What is called Kd is the constant that tells how readily two partners part at equilibrium. A high value points to weaker binding.

T1 sequence (chain, as listed by the source mutant limits assumed): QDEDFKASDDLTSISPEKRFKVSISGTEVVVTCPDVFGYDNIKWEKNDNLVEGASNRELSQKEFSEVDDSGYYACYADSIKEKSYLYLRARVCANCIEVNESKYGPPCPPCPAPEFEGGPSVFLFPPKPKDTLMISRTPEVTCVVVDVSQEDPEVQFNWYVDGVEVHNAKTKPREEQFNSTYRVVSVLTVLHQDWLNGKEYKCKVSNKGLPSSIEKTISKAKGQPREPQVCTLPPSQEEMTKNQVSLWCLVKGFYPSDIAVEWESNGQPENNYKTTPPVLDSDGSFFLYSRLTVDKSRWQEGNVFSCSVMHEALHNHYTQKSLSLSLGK
Chain of canine CD3 on canine T cells (canine PBMC) (P27597 22-202 limits assumed, chain 1 of 3): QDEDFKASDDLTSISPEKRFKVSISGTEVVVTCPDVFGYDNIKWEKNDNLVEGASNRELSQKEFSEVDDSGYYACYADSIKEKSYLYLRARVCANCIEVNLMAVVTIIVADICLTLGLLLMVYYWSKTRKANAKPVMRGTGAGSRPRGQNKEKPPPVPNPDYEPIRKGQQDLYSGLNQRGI
Chain of canine CD3 on canine T cells (canine PBMC) (chain, as listed by the source limits assumed, chain 2 of 3): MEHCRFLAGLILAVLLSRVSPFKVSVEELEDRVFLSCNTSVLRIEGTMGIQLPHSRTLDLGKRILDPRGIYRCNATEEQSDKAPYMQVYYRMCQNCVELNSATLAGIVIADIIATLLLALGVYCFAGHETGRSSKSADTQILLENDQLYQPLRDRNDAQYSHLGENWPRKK
Chain of canine CD3 on canine T cells (canine PBMC) (chain, as listed by the source limits assumed, chain 3 of 3): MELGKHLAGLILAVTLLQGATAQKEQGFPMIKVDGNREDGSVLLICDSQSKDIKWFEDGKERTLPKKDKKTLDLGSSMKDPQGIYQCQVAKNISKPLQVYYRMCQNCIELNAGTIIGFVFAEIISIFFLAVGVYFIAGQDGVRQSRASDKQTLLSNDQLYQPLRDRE

B1: PMX192 in bispecific format (canine CD3 arm PMX192 x Rituximab arm, human IgG4PE knob-in-hole) (bispecific antibody)
heavy 1: EVQLVESGGDLVKPAGSLRLSCVASGFTFSDYSMSWVRQAPEKGLQLVAGINGDGSTTYYTDAVKGRFTISRDNAKNTVYLQMNSLRAEDTAMYYCAKGAGTGDFWGQGTLVTVSSASTKGPSVFPLAPCSRSTSESTAALGCLVKDYFPEPVTVSWNSGALTSGVHTFPAVLQSSGLYSLSSVVTVPSSSLGTKTYTCNVDHKPSNTKVDKRVESKYGPPCPPCPAPEFEGGPSVFLFPPKPKDTLMISRTPEVTCVVVDVSQEDPEVQFNWYVDGVEVHNAKTKPREEQFNSTYRVVSVLTVLHQDWLNGKEYKCKVSNKGLPSSIEKTISKAKGQPREPQVYTLPPSQCEMTKNQVSLSCAVKGFYPSDIAVEWESNGQPENNYKTTPPVLDSDGSFFLVSRLTVDKSRWQEGNVFSCSVMHEALHNRFTQKSLSLSLGK
light 1: SYELTQPPSVNVTLRETAHITCGGASIGRKYVQWIQQIPGQAPVVIIYKDSNRPTGIPERFSGANSGNTATLTISGALAEDEADYYCQVGDSGAWVFGEGTQLTVLRTVAAPSVFIFPPSDEQLKSGTASVVCLLNNFYPREAKVQWKVDNALQSGNSQESVTEQDSKDSTYSLSSTLTLSKADYEKHKVYACEVTHQGLSSPVTKSFNRGEC
heavy 2: not shown
light 2: QIVLSQSPAILSASPGEKVTMTCRASSSVSYIHWFQQKPGSSPKPWIYATSNLASGVPVRFSGSGSGTSYSLTISRVEAEDAATYYCQQWTSNPPTFGGGTKLEIKRTVAAPSVFIFPPSDEQLKSGTASVVCLLNNFYPREAKVQWKVDNALQSGNSQESVTEQDSKDSTYSLSSTLTLSKADYEKHKVYACEVTHQGLSSPVTKSFNRGEC
Take B1: in assay [1], the “EC50 (M) of killing potency, bispecific killing of hCD20+GFP MDCK II cells by canine PBMC” value (“EC50 (M) of killing potency” for short) was 3.21e-08 M. Moreover, the Kd in assay [2] was determined as 74.4 nM.

B2: PMX184 in bispecific format (canine CD3 arm PMX184 x Rituximab arm, human IgG4PE knob-in-hole) (bispecific antibody)
heavy 1: ELTLQESGPGLVKPSQTLSLTCGVSGGSVTRSHYWNWVRQRPGRGLEWMGYWTGSTNYNPAFQGRISITADTAKNQFSLQLRSMTTEDTAVYFCARETTIPTFFFDYWGQGTLVTVSSASTKGPSVFPLAPCSRSTSESTAALGCLVKDYFPEPVTVSWNSGALTSGVHTFPAVLQSSGLYSLSSVVTVPSSSLGTKTYTCNVDHKPSNTKVDKRVESKYGPPCPPCPAPEFEGGPSVFLFPPKPKDTLMISRTPEVTCVVVDVSQEDPEVQFNWYVDGVEVHNAKTKPREEQFNSTYRVVSVLTVLHQDWLNGKEYKCKVSNKGLPSSIEKTISKAKGQPREPQVYTLPPSQCEMTKNQVSLSCAVKGFYPSDIAVEWESNGQPENNYKTTPPVLDSDGSFFLVSRLTVDKSRWQEGNVFSCSVMHEALHNRFTQKSLSLSLGK
light 1: SYVLTQLPSKNVTLKQPAHITCGGDNIGSKSVHWYQQKLGQAPVLIIYYDSSRPTGIPERFSGANSGNTATLTISGALAEDEADYYCQVWDSGAKAWVFGEGTQLTVLRTVAAPSVFIFPPSDEQLKSGTASVVCLLNNFYPREAKVQWKVDNALQSGNSQESVTEQDSKDSTYSLSSTLTLSKADYEKHKVYACEVTHQGLSSPVTKSFNRGEC
heavy 2: not shown
light 2: QIVLSQSPAILSASPGEKVTMTCRASSSVSYIHWFQQKPGSSPKPWIYATSNLASGVPVRFSGSGSGTSYSLTISRVEAEDAATYYCQQWTSNPPTFGGGTKLEIKRTVAAPSVFIFPPSDEQLKSGTASVVCLLNNFYPREAKVQWKVDNALQSGNSQESVTEQDSKDSTYSLSSTLTLSKADYEKHKVYACEVTHQGLSSPVTKSFNRGEC
With B2, in assay [1], the “EC50 (M) of killing potency” value amounted to 2.55e-08 M. Moreover, in assay [2], the dissociation constant Kd came to 99.8 nM.

B3: PMX185 in bispecific format (canine CD3 arm PMX185 x Rituximab arm, human IgG4PE knob-in-hole) (bispecific antibody)
heavy 1: EVQLVESGGDLVKPGGSLRLSCVASGFTFSSYHMSWVRQAPGKGLQWVASINSGGSRTSYVDAVKGRFTISRDNAKKTLYLQMNSLRAEDTAVYYCASGRTGPKLGLGDYGMDSWGHGTSLFVSSASTKGPSVFPLAPCSRSTSESTAALGCLVKDYFPEPVTVSWNSGALTSGVHTFPAVLQSSGLYSLSSVVTVPSSSLGTKTYTCNVDHKPSNTKVDKRVESKYGPPCPPCPAPEFEGGPSVFLFPPKPKDTLMISRTPEVTCVVVDVSQEDPEVQFNWYVDGVEVHNAKTKPREEQFNSTYRVVSVLTVLHQDWLNGKEYKCKVSNKGLPSSIEKTISKAKGQPREPQVYTLPPSQCEMTKNQVSLSCAVKGFYPSDIAVEWESNGQPENNYKTTPPVLDSDGSFFLVSRLTVDKSRWQEGNVFSCSVMHEALHNRFTQKSLSLSLGK
light 1: SYVLTQLPSKNVTLKQPAHITCGGDNIGSKSVHWYQQKLGQAPVMIIYYDSSRPTGIPERFSGANSGNTATLTISGALAEDEADYYCQVWDSSAKAWVFGEGTQLTVLRTVAAPSVFIFPPSDEQLKSGTASVVCLLNNFYPREAKVQWKVDNALQSGNSQESVTEQDSKDSTYSLSSTLTLSKADYEKHKVYACEVTHQGLSSPVTKSFNRGEC
heavy 2: not shown
light 2: QIVLSQSPAILSASPGEKVTMTCRASSSVSYIHWFQQKPGSSPKPWIYATSNLASGVPVRFSGSGSGTSYSLTISRVEAEDAATYYCQQWTSNPPTFGGGTKLEIKRTVAAPSVFIFPPSDEQLKSGTASVVCLLNNFYPREAKVQWKVDNALQSGNSQESVTEQDSKDSTYSLSSTLTLSKADYEKHKVYACEVTHQGLSSPVTKSFNRGEC
Consider B3, for which the “EC50 (M) of killing potency” value in assay [1] came to 4.79e-09 M. The dissociation constant Kd in assay [2] was determined as 72.1 nM.

B4: PMX188 in bispecific format (canine CD3 arm PMX188 x Rituximab arm, human IgG4PE knob-in-hole) (bispecific antibody)
heavy 1: EVQLVESGGDLVKPGGSLRLSCVASGFTFSSYHMSWVRQAPGKGLQWVASINSGGSRTSYVDAVKGRFTISRDNAKKTLYLQMNSLRAEDTAVYYCASGRTGPKLGLGDYGMDSWGHGTSLFVSSASTKGPSVFPLAPCSRSTSESTAALGCLVKDYFPEPVTVSWNSGALTSGVHTFPAVLQSSGLYSLSSVVTVPSSSLGTKTYTCNVDHKPSNTKVDKRVESKYGPPCPPCPAPEFEGGPSVFLFPPKPKDTLMISRTPEVTCVVVDVSQEDPEVQFNWYVDGVEVHNAKTKPREEQFNSTYRVVSVLTVLHQDWLNGKEYKCKVSNKGLPSSIEKTISKAKGQPREPQVYTLPPSQCEMTKNQVSLSCAVKGFYPSDIAVEWESNGQPENNYKTTPPVLDSDGSFFLVSRLTVDKSRWQEGNVFSCSVMHEALHNRFTQKSLSLSLGK
light 1: SYVLTQLPSKNVTLKQPAHITCGGDNIGSKSVHWYQQKLGQAPILIIYYDSSRPTGIPERFSGANSGNTATLTISGALAEDEADYYCQVWDSSAKAWVFGEGTQLTVLRTVAAPSVFIFPPSDEQLKSGTASVVCLLNNFYPREAKVQWKVDNALQSGNSQESVTEQDSKDSTYSLSSTLTLSKADYEKHKVYACEVTHQGLSSPVTKSFNRGEC
heavy 2: not shown
light 2: QIVLSQSPAILSASPGEKVTMTCRASSSVSYIHWFQQKPGSSPKPWIYATSNLASGVPVRFSGSGSGTSYSLTISRVEAEDAATYYCQQWTSNPPTFGGGTKLEIKRTVAAPSVFIFPPSDEQLKSGTASVVCLLNNFYPREAKVQWKVDNALQSGNSQESVTEQDSKDSTYSLSSTLTLSKADYEKHKVYACEVTHQGLSSPVTKSFNRGEC
Turning to B4, the “EC50 (M) of killing potency” value in assay [1] was 8.23e-09 M. This molecule had a Kd in assay [2] of 292 nM.

B5: PMX187 in bispecific format (canine CD3 arm PMX187 x Rituximab arm, human IgG4PE knob-in-hole) (bispecific antibody)
heavy 1: EVQLVESGGDLVKPGGSLRLSCVASGFTFSSYHMSWVRQAPGKGLQWVASINSGGSRTSYVDAVKGRFTISRDNAKNTLYLQMNSLRAEDTAVYYCASGRTGPKLGLGDYGMDSWGHGTSLFVSSASTKGPSVFPLAPCSRSTSESTAALGCLVKDYFPEPVTVSWNSGALTSGVHTFPAVLQSSGLYSLSSVVTVPSSSLGTKTYTCNVDHKPSNTKVDKRVESKYGPPCPPCPAPEFEGGPSVFLFPPKPKDTLMISRTPEVTCVVVDVSQEDPEVQFNWYVDGVEVHNAKTKPREEQFNSTYRVVSVLTVLHQDWLNGKEYKCKVSNKGLPSSIEKTISKAKGQPREPQVYTLPPSQCEMTKNQVSLSCAVKGFYPSDIAVEWESNGQPENNYKTTPPVLDSDGSFFLVSRLTVDKSRWQEGNVFSCSVMHEALHNRFTQKSLSLSLGK
light 1: SYVLTQLPSKNVTLKQPAHITCGGDNIGSKSVHWYQQKLGQAPVLIIYYDSSRPTGIPERFSGANSGNTATLTISGALAEDEADYYCQVWDSSAKAWVFGAGTQLTVLRTVAAPSVFIFPPSDEQLKSGTASVVCLLNNFYPREAKVQWKVDNALQSGNSQESVTEQDSKDSTYSLSSTLTLSKADYEKHKVYACEVTHQGLSSPVTKSFNRGEC
heavy 2: not shown
light 2: QIVLSQSPAILSASPGEKVTMTCRASSSVSYIHWFQQKPGSSPKPWIYATSNLASGVPVRFSGSGSGTSYSLTISRVEAEDAATYYCQQWTSNPPTFGGGTKLEIKRTVAAPSVFIFPPSDEQLKSGTASVVCLLNNFYPREAKVQWKVDNALQSGNSQESVTEQDSKDSTYSLSSTLTLSKADYEKHKVYACEVTHQGLSSPVTKSFNRGEC
As to B5, in assay [1], the “EC50 (M) of killing potency” value is 1.14e-08 M. Further, the Kd in assay [2] came to 106 nM.

B6: PMX172VH/PMX234VH/PMX172VL (bispecific antibody, V domains shown)
VH 1: EVQLVESGGDLVKPGGSLRLSCVASGFTFSSYHMSWVRQAPGKGLQWVAYSNSGGSRTSYADAVKGRFTISRDNAKNTLYLQMNSLRAEDTAVYYCASEGGGGRYGYKDYGMDYWGHGTSLFVSS
VH 2: ELQLVESGGDLVKPGGSLRLSCVASGFTFSRYYLNWVRQAPGKGLQWVAFITSGGSSTNYADAVKGRFTISRDNAKNTLYLQMNSLRAEDTAVYYCTSFDSWGQGTLVTVSS
VL: SYVLTQLPSKNVTLKQPAHITCGGDNIGSKSVHWYQQKLGQAPVLIIYYDSSRPTGIPERFSGANSGNTATLTISGALAEDEADYYCQVWDSSAKAWVFGEGTQLTVL
For the molecule B6, in assay [3], the “EC50 (nM), bispecific killing (FIG. 15)” value was 0.412 nM.

B7: PMX172VH/PMX235VH/PMX172VL (bispecific antibody, V domains shown)
VH 1: EVQLVESGGDLVKPGGSLRLSCVASGFTFSSYHMSWVRQAPGKGLQWVAYSNSGGSRTSYADAVKGRFTISRDNAKNTLYLQMNSLRAEDTAVYYCASEGGGGRYGYKDYGMDYWGHGTSLFVSS
VH 2: EVQLVESGGDLVKPGGSLRLSCVASGITFSRYYMNWVRQAPGKGLQWVAYINTGESSTIYSDAVKGRFTISRDNAKNTLYLQMNSLRAEDTAVYYCTTLEYWGQGTLVTVSS
VL: SYVLTQLPSKNVTLKQPAHITCGGDNIGSKSVHWYQQKLGQAPVLIIYYDSSRPTGIPERFSGANSGNTATLTISGALAEDEADYYCQVWDSSAKAWVFGEGTQLTVL
For the molecule B7, the “EC50 (nM), bispecific killing (FIG. 15)” value in assay [3] worked out at 0.445 nM.

The values are drawn from US20240209086A1 (PETMEDIX, published 2024).
